Test system: BL21-DE3 E. coli cells
Test: slncRNA and tdPCP-mCherry expression in bacteria (puncta, burst analysis, flow cytometry)
Format: cell-based
Details: slncRNA co-expressed with tdPCP-mCherry, overnight induction

B1: PCP-4×/QCP-5×: class II slncRNA, four native PCP binding sites and five native QB coat protein hairpins (SEQ ID NO: 29) (nucleic acid)
chain: GAGAAACCTAGGCGATTATGACGTTATTCTACTTTGATTGTGATGCATGTCTAAGACAGCATCGCCTGCTGGTCGTGACTAAGGAGTTTATATGGAAACCCTTACGAGACAATGCTACCTTACCGGTCGGGCCCACTTGTTTTTACCCATGATGCATGTCTAAGACAGCATCGCCTGCTGGTCGTGACTAAGGAGTTTATATGGAAACCCTTAGAAACAGCCGTCGCCTTGAAGCCGAGAACAATGCATGTCTAAGACAGCATATGGATTGCCTGTCTGTTAAGGAGTTTATATGGAAACCCTTACATCAGGCTTCGCAGTATGCAACGCTTGCGATGCATGTCTAAGACAGCATTTCACCGCTTTCCTAAGTAAGGAGTTTATATGGAAACCCTTAGTACTAACTCGCAGATGCATGTCTAAGACAGCATCAGAAACGTCACGTCCTGGCTGTCGA
- puncta formation in cells: formation of bright puncta at the cell poles

From patent US20240218024A1, “METHODS AND COMPOSITIONS FOR TREATMENT OF VIRAL INFECTION” (TECHNION RESEARCH & DEVELOPMENT FOUNDATION LIMITED, priority 2021, published 2024)
